In US9879306B2, “Luciferase biosensors for cAMP” (PROMEGA CORPORATION, priority 2008, dated 2018):
Changes are numbered by the printed parent chain. Names and notes keep the numbering of the source.

T1: GPR41 (Homo sapiens, UniProt O14843)
T1 sequence (O14843 1-346): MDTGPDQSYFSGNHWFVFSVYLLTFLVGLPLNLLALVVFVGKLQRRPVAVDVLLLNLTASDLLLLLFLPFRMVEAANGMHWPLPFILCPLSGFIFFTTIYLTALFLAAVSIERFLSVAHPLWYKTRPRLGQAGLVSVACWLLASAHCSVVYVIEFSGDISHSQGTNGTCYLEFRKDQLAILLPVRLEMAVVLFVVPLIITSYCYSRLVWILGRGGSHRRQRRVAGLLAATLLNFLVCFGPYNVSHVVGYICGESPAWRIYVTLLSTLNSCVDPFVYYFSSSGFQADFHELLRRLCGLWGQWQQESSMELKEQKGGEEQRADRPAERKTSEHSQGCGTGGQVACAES

B1: L9-L: L9 background with Luc2.0 F518L; SEQ ID NO:94, 95 (protein)
chain: MPGAVGKVVPFFEAKVVDLDTGKTLGVNQRGELCVRGPMIMSGYVNNPEATNALIDKDGWLHSGDIAYWDEDEHFFIVDRLKSLIKYKGYQVAPAELESILLQHPNIFDAGVAGLPDDDAGELPAAVVVLEHGKTMTEKEIVDYVASQVTTAKKLRGGVVLVDEVPKGLTGKLDARKIREILIKAKKGSIAGCGDAGEGMYESFIESLPFLKSLEFSARLKVVDVIGTKVYNDGEQIIAQGDSADSFFIIESGEVKITMKRKGKSEVEENGAVEIARCSRGQYFGELALVTNKPRAASAHAIGTVKCLAMDVQAFERLLGPCMEIMKRNIATYEEQLVALFGTNMDIVAKNIKKGPAPFYPLEDGTAGEQLHKAMKRYALVPGTIAFTDAHIEVDITYAEYFEMSVRLAEAMKRYGLNTNHRIVVCSENSLQFFMPVLGALFIGVAVAPANDIYNERELLNSMGISQPTVVFVSKKGLQKILNVQKKLPIIQKIIIMDSKTDYQGFQSMYTFVTSHLPPGFNEYDFVPESFDRDKTIALIMNSSGSTGLPKGVALPHRTACVRFSHARDPIFGNQIIPDTAILSVVPFHHGFGMFTTLGYLICGFRVVLMYRFEEELFLRSLQDYKIQSALLVPTLFSFFAKSTLIDKYDLSNLHEIASGGAPLSKEVGEAVAKRFHLPGIRQGYGLTETTSAILITPEGV
B2: L9-IQ: L9 background with Luc2.0 F369I, K541Q; SEQ ID NO:74, 75 (protein)
chain: B1 chain with F12I, L161F, K184Q
B3: 7A1-IQ: 7A1 background with Luc2.0 F369I, K541Q; SEQ ID NO:23, 24 (protein)
chain: B1 chain with F12I, L161F, K184Q, I190N, A191W, G192D, C193S, D195C, A196S, G197R
B4: L9-ILQ: L9 background with Luc2.0 F369I, F518L, K541Q; SEQ ID NO:86, 87 (protein)
chain: B1 chain with F12I, K184Q
B5: L9-LQ: L9 background with Luc2.0 F518L, K541Q; SEQ ID NO:102, 103 (protein)
chain: B1 chain with K184Q
B6: 7A1-ILQ: 7A1 background with Luc2.0 F369I, F518L, K541Q; SEQ ID NO:68, 69 (protein)
chain: B1 chain with F12I, K184Q, I190N, A191W, G192D, C193S, D195C, A196S, G197R
B7: L9-IL: L9 background with Luc2.0 F369I, F518L; SEQ ID NO:84, 85 (protein)
chain: B1 chain with F12I
B8: L9-Y: L9 background with RIIβB F407Y; SEQ ID NO:98, 99 (protein)
chain: B1 chain with L161F, F341Y
B9: L9-QY: L9 background with Luc2.0 K541Q and RIIβB F407Y; SEQ ID NO:90, 91 (protein)
chain: B1 chain with L161F, K184Q, F341Y
B10: L9-I: L9 background with Luc2.0 F369I; SEQ ID NO:92, 93 (protein)
chain: B1 chain with F12I, L161F
B11: L9-LQY: L9 background with Luc2.0 F518L, K541Q and RIIβB F407Y; SEQ ID NO:88, 89 (protein)
chain: B1 chain with K184Q, F341Y
B12: L9-LY: L9 background with Luc2.0 F518L and RIIβB F407Y; SEQ ID NO:100, 101 (protein)
chain: B1 chain with F341Y
B13: L9-Q: L9 background with Luc2.0 K541Q; SEQ ID NO:96, 97 (protein)
chain: B1 chain with L161F, K184Q
B14: 7A1-IQY: 7A1 background with Luc2.0 F369I, K541Q and RIIβB F407Y; SEQ ID NO:29, 30 (protein)
chain: MPGAVGKVVPFIEAKVVDLDTGKTLGVNQRGELCVRGPMIMSGYVNNPEATNALIDKDGWLHSGDIAYWDEDEHFFIVDRLKSLIKYKGYQVAPAELESILLQHPNIFDAGVAGLPDDDAGELPAAVVVLEHGKTMTEKEIVDYVASQVTTAKKLRGGVVFVDEVPKGLTGKLDARKIREILIQAKKGSNWDSGCSREGMYESFIESLPFLKSLEFSARLKVVDVIGTKVYNDGEQIIAQGDSADSFFIIESGEVKITMKRKGKSEVEENGAVEIARCSRGQYFGELALVTNKPRAASAHAIGTVKCLAMDVQAFERLLGPCMEIMKRNIATYEEQLVALYGTNMDIVAKNIKKGPAPFYPLEDGTAGEQLHKAMKRYALVPGTIAFTDAHIEVDITYAEYFEMSVRLAEAMKRYGLNTNHRIVVCSENSLQFFMPVLGALFIGVAVAPANDIYNERELLNSMGISQPTVVFVSKKGLQKILNVQKKLPIIQKIIIMDSKTDYQGFQSMYTFVTSHLPPGFNEYDFVPESFDRDKTIALIMNSSGSTGLPKGVALPHRTACVRFSHARDPIFGNQIIPDTAILSVVPFHHGFGMFTTLGYLICGFRVVLMYRFEEELFLRSLQDYKIQSALLVPTLFSFFAKSTLIDKYDLSNLHEIASGGAPLSKEVGEAVAKRFHLPGIRQGYGLTETTSAILITPEGV
B15: L9-IY: L9 background with Luc2.0 F369I and RIIβB F407Y; SEQ ID NO:76, 77 (protein)
chain: B1 chain with F12I, L161F, F341Y
B16: L9-IQY: L9 background with Luc2.0 F369I, K541Q and RIIβB F407Y; SEQ ID NO:78, 79 (protein)
chain: B1 chain with F12I, L161F, K184Q, F341Y

molecular target: T1, GPR41; experiment: Sodium proprionate CRC with biosensor variants in HEK293 cells stably expressing GPR41; format: cell-based; conditions: with FSK 1 μM
Experimental: (§1) After 24 hours, the cells were transiently transfected with one of the cAMP biosensor variants (Tables 7A and 7B). After another 24 hours, the cells were equilibrated for 2 hours at room temperature using 5 mM EF-luc in CO2 independent media with 10% FBS. Prior to the addition of the compounds, luminescence was measured. The compounds (12× stock in CO2 independent media without FBS) were then added to the cells. For GPR41 expressing cells, sodium proprionate CRC was added. […] The cells were allowed to incubate another 30 minutes and luminescence read on a Varioskan Flash. EC50 values and fold responses were calculated for each of the clones with each of the compounds with or without FSK. In addition, variants […]7 (Example VIIB), 16A2 (Example VIIB) and GS358 were also screened.

Molecule	Fold Response Na proprionate + FSK(1 μM) [fold]
B1	5.72
B2	5.17
B3	3.42
B4	10.21
B5	7.20
B6	5.68
B7	7.43
B8	3.88
B9	10.02
B10	3.83
B11	13.78
B12	5.57
B13	5.24

same assay, conditions: without FSK, ratio of induced to uninduced signal

Molecule	Fold Response Na proprionate [fold]
B14	2.42
B1	3.04
B2	3.41
B3	3.66
B4	4.13
B5	2.83
B6	4.09
B7	3.67
B8	2.17
B9	2.01
B10	3.61
B11	1.95
B15	2.53
B16	3.82
B12	2.07
B13	2.57

test system: GPR41; experiment: as above; format: cell-based; conditions: ratio of RLU of FSK treated well to untreated well
Experimental: as §1

Molecule	Fold Signal Change [fold]
B14	128.0
B1	72.2
B2	64.0
B3	128.0
B4	140.4
B5	98.6
B6	181.8
B7	96.7
B8	55.8
B9	61.3
B10	83.5
B11	136.0
B15	86.4
B16	96.0
B12	126.7
B13	42.0
